Patent publication US20240018240A1 (Hoffmann-La Roche, published 2024)
Changes are numbered by the printed parent chain. In names and notes the source's numbering stands. One block for each binder: values may come before it.

Experiments:
[1] = biological target: T1, Human CD3ε stalk-Fc(knob)-Avi/CD3δ stalk-Fc(hole) (human); test: SPR (Biacore T200, 25°C), TCB format, same conditions
T1 construct: Heterodimer of CD3 delta and CD3 epsilon ectodomains fused to a human Fc domain with knob-into-hole modifications and C-terminal Avi-tag; also called human CD3ε/δ; CD3ε/δ
Source text: (§1) For affinity measurements, TCB molecules were captured on a C1 sensorchip (GE Healthcare) surface with immobilized anti-Fc (P329G) IgG (an antibody that specifically binds human IgG₁ Fc (P329G); “anti-PG antibody”—see WO 2017/072210, incorporated herein by reference). The experimental setup is schematically depicted in FIG. 3. Capture IgG was coupled to the sensorchip surface by direct immobilization of around 400 resonance units (RU) using the standard amine coupling kit (GE Healthcare Life Sciences).
(§2) To analyze the interaction to CD3, TCB molecules were captured for 80 s at 25 nM with a flow rate of 10 μl/min. Human and cynomolgus CD3ε stalk-Fc(knob)-Avi/CD3δ stalk-Fc(hole) (CD3ε/δ, see SEQ ID NOs 24 and 25 (human) and SEQ ID NOs 26 and 27 (cynomolgus)) were passed at a concentration of 0.122-125 nM with a flow rate of 30 μl/min through the flow cells for 300 s. The dissociation was monitored for 800 s.
(§3) Kinetic constants were derived using the Biacore T200 Evaluation Software (GE Healthcare Life Sciences), to fit rate equations for 1:1 Langmuir binding by numerical integration. The half-life (t_{1/2}) of the interaction was calculated using the formula t_{1/2}=ln 2/koff.

[2] = biological target: T2, Cynomolgus CD3ε stalk-Fc(knob)-Avi/CD3δ stalk-Fc(hole) (cynomolgus); test: SPR (Biacore T200, 25°C); TCB captured by anti-PG antibody on C1 chip, CD3ε/δ-Fc as analyte; 1:1 Langmuir fit
T2 construct: Heterodimeric Fc fusion, soluble analyte in SPR; also called cynomolgus CD3ε/δ
Source text: as §1, §2, §3

[3] = biological target: T1, Human CD3ε stalk-Fc(knob)-Avi/CD3δ …; test: as above
Source text: as §1, §2, §3

[4] = biological target: T2, Cynomolgus CD3ε stalk-Fc(knob)-Avi/CD3δ …; test: SPR (Biacore T200, 25°C); TCB captured by anti-PG antibody on C1 chip, CD3ε/δ-Fc as analyte; t1/2 = ln 2/koff
Source text: as §1, §2, §3

[5] = biological target: T1, Human CD3ε stalk-Fc(knob)-Avi/CD3δ …; test: as above
Source text: as §1, §2, §3

[6] = biological target: T1, Human CD3ε stalk-Fc(knob)-Avi/CD3δ …; test: SPR (Biacore T200, 25°C), TCB format, monovalent binding
Source text: as §1, §2, §3

[7] = biological target: T1, Human CD3ε stalk-Fc(knob)-Avi/CD3δ …; test: SPR (Biacore T200); biotinylated human CD3ε/δ on SA chip, TCB injected at 2 µg/ml; normalised to anti-huIgG capture, relative to the non-stressed sample
Method: In order to assess the effect of the deamidation site removal and its effect on the stability of the antibodies, the anti-CD3 antibodies (in TCB format) were incubated for 14 days at 37° C., pH 7.4 and at 40° C., pH 6 and further analyzed by SPR for their binding capability to human CD3ε/δ. Samples stored at −80° C. pH 6 were used as reference. The reference samples and the samples stressed at 40° C. were in 20 mM His, 140 mM NaCl, pH 6.0, and the samples stressed at 37° C. in PBS, pH 7.4, all at a concentration of 1.0 mg/ml. After the stress period (14 days) samples in PBS were dialyzed back to 20 mM His, 140 mM NaCl, pH 6.0 for further analysis.
All SPR experiments were performed on a Biacore T200 instrument (GE Healthcare) at 25° C. with HBS-P+(10 mM HEPES, 150 mM NaCl pH 7.4, 0.05% Surfactant P20) as running and dilution buffer. Biotinylated human CD3ε/δ (see Example 3, SEQ ID NOs 24 and 25) as well as biotinylated anti-huIgG (Capture Select, Thermo Scientific, #7103262100) were immobilized on a Series S Sensor Chip SA (GE Healthcare, #29104992), resulting in surface densities of at least 1000 resonance units (RU). Anti-CD3 antibodies with a concentration of 2 μg/ml were injected for 30 s at a flow rate of 5 μl/min, and dissociation was monitored for 120 s. The surface was regenerated by injecting 10 mM glycine pH 1.5 for 60 s. Bulk refractive index differences were corrected by subtracting blank injections and by subtracting the response obtained from a blank control flow cell. For evaluation, the binding response 5 seconds after injection end was taken. To normalize the binding signal, the CD3 binding was divided by the anti-huIgG response (the signal (RU) obtained upon capture of the CD3 antibody on the immobilized anti-huIgG antibody). The relative binding activity was calculated by referencing each temperature stressed sample to the corresponding, non-stressed sample.

[8] = biological target: T2, Cynomolgus CD3ε stalk-Fc(knob)-Avi/CD3δ …; test: SPR (Biacore T200, 25°C); monovalent IgG captured by anti-PG antibody on C1 chip, CD3ε/δ-Fc as analyte; t1/2 = ln 2/koff
Method: as §3
(§4) SPR experiments were performed as described in Example 3, with the monovalent IgG molecules prepared in Example 6.
(§5) To analyze the interaction to CD3, IgG molecules were captured for 240 s at 50 nM with a flow rate of 5 μl/min. Human and cynomolgus CD3ε stalk-Fc(knob)-Avi/CD3δ-stalk-Fc(hole) were passed at a concentration of 0.061-250 nM with a flow rate of 30 μl/min through the flow cells for 300 s. The dissociation was monitored for 800 s.

[9] = biological target: T1, Human CD3ε stalk-Fc(knob)-Avi/CD3δ …; test: as above
Method: as §3, §4, §5

[10] = biological target: T2, Cynomolgus CD3ε stalk-Fc(knob)-Avi/CD3δ …; test: SPR (Biacore T200, 25°C); monovalent IgG captured by anti-PG antibody on C1 chip, CD3ε/δ-Fc as analyte; 1:1 Langmuir fit; triplicates
Method: as §3, §4, §5

[11] = biological target: T1, Human CD3ε stalk-Fc(knob)-Avi/CD3δ …; test: as above
Method: as §3, §4, §5

[12] = biological target: T1, Human CD3ε stalk-Fc(knob)-Avi/CD3δ …; test: SPR (Biacore T200, 25°C), monovalent IgG format, same conditions
Method: as §4, §5

B1: TYRP1 T-cell bispecific antibody (TCB) comprising anti-CD3 antibody P035.093 (bispecific antibody, human IgG1, kappa, L234A L235A)
heavy 1: not shown
heavy 2: QVQLVQSGAEVKKPGASVKVSCKASGFNIKDYFLHWVRQAPGQGLEWMGWINPDNGNTVYAQKFQGRVTMTADTSTSTVYMELSSLRSEDTAVYYCTRRDYTYEKAALDYWGQGTLVTVSSASTKGPSVFPLAPSSKSTSGGTAALGCLVEDYFPEPVTVSWNSGALTSGVHTFPAVLQSSGLYSLSSVVTVPSSSLGTQTYICNVNHKPSNTKVDEKVEPKSCDKTHTCPPCPAPEAAGGPSVFLFPPKPKDTLMISRTPEVTCVVVDVSHEDPEVKFNWYVDGVEVHNAKTKPREEQYNSTYRVVSVLTVLHQDWLNGKEYKCKVSNKALGAPIEKTISKAKGQPREPQVCTLPPSRDELTKNQVSLSCAVKGFYPSDIAVEWESNGQPENNYKTTPPVLDSDGSFFLVSKLTVDKSRWQQGNVFSCSVMHEALHNHYTQKSLSLSP
light 1: DIQMTQSPSSLSASVGDRVTITCRASGNIYNYLAWYQQKPGKVPKLLIYDAKTLADGVPSRFSGSGSGTDFTLTISSLQPEDVATYYCQHFWSLPFTFGQGTKLEIKRTVAAPSVFIFPPSDRKLKSGTASVVCLLNNFYPREAKVQWKVDNALQSGNSQESVTEQDSKDSTYSLSSTLTLSKADYEKHKVYACEVTHQGLSSPVTKSFNRGEC
light 2: EVQLLESGGGLVQPGGSLRLSCAASGFTFSSYAMNWVRQAPGKGLEWVSRIRSKYNNYATYYADSVKGRFTISRDDSKNTLYLQMNSLRAEDTAVYYCVRASNFPASYVSYFAYWGQGTLVTVSSASVAAPSVFIFPPSDEQLKSGTASVVCLLNNFYPREAKVQWKVDNALQSGNSQESVTEQDSKDSTYSLSSTLTLSKADYEKHKVYACEVTHQGLSSPVTKSFNRGEC
notes: 2+1 IgG CrossFab, inverted, with charge modifications; human IgG1 Fc with knob-into-hole and P329G LALA; also called P035.093 (in TCB format); TYRP1 TCB P035.093
- fold increase of affinity compared to CD3orig and CD3opt [1]: ≤ 10 fold
- Kd [2]: 0.21 nM
- koff [2]: 0.00104 s⁻¹
- kon [2]: 4.89e+06 M⁻¹ s⁻¹
- Kd [3]: 0.41 nM
- koff [3]: 0.00153 s⁻¹
- kon [3]: 3.75e+06 M⁻¹ s⁻¹
- t1/2 [4]: 11.1 min
- t1/2 [5]: 7.55 min
- fold higher binding half-life than CD3orig and CD3opt [6]: ≤ 4 fold
- binding activity [%], 2 weeks at pH 6.0/40°C [7]: 97%
- binding activity [%], 2 weeks at pH 7.4/37°C [7]: 95%

B2: anti-CD3 antibody P035.093 in monovalent human IgG1 format (antibody)
heavy: not shown
chain: DKTHTCPPCPAPEAAGGPSVFLFPPKPKDTLMISRTPEVTCVVVDVSHEDPEVKFNWYVDGVEVHNAKTKPREEQYNSTYRVVSVLTVLHQDWLNGKEYKCKVSNKALGAPIEKTISKAKGQPREPQVCTLPPSRDELTKNQVSLSCAVKGFYPSDIAVEWESNGQPENNYKTTPPVLDSDGSFFLVSKLTVDKSRWQQGNVFSCSVMHEALHNHYTQKSLSLSP
light: B1 light 2
notes: also called P035.093 (in monovalent IgG format)
- t1/2 [8]: 11.8 min
- t1/2 [9]: 8.25 min
- Kd [10]: 0.224 nM
- koff [10]: 0.000981 s⁻¹
- kon [10]: 4.38e+06 M⁻¹ s⁻¹
- Kd [11]: 0.456 nM
- koff [11]: 0.0014 s⁻¹
- kon [11]: 3.08e+06 M⁻¹ s⁻¹
- fold increase of affinity compared to CD3orig [12]: ≤ 10 fold

Other lines, results leading:

- t1/2 [9]: 3.98 min
- Kd [11]: 4.94 nM
- koff [11]: 0.0029 s⁻¹
- kon [11]: 587000 M⁻¹ s⁻¹
B3: anti-CD3 antibody CD3orig in monovalent human IgG1 format (antibody)
heavy: not shown
chain: B2 chain
light: B1 light 2 with S31T, A101H, S102G, P105G, A106N, Y111W
notes: also called CD3orig (in monovalent IgG format)

- Kd [2]: 0.86 nM
- koff [2]: 0.0023 s⁻¹
- kon [2]: 2.67e+06 M⁻¹ s⁻¹
- Kd [3]: 4.3 nM
- koff [3]: 0.00621 s⁻¹
- kon [3]: 1.44e+06 M⁻¹ s⁻¹
- t1/2 [4]: 5.02 min
- t1/2 [5]: 1.86 min
- binding activity [%], 2 weeks at pH 6.0/40°C [7]: 97%
- binding activity [%], 2 weeks at pH 7.4/37°C [7]: 92%
B4: TYRP1 T-cell bispecific antibody (TCB) comprising anti-CD3 antibody CD3opt (bispecific antibody, human IgG1, kappa, L234A L235A)
heavy 1: not shown
heavy 2: B1 heavy 2
light 1: B1 light 1
light 2: B1 light 2 with T28Q, A101H, S102T, N103T, A106S, F112Y, A113G
notes: 2+1 IgG CrossFab, inverted, with charge modifications; human IgG1 Fc with knob-into-hole and P329G LALA; also called CD3opt (in TCB format)

- Kd [3]: 6.54 nM
- koff [3]: 0.00338 s⁻¹
- kon [3]: 517000 M⁻¹ s⁻¹
- t1/2 [5]: 3.42 min
- binding activity [%], 2 weeks at pH 6.0/40°C [7]: 95%
- binding activity [%], 2 weeks at pH 7.4/37°C [7]: 65%
B5: TYRP1 T-cell bispecific antibody (TCB) comprising anti-CD3 antibody CD3orig (bispecific antibody, human IgG1, kappa, L234A L235A)
heavy 1: not shown
heavy 2: B1 heavy 2
light 1: B1 light 1
light 2: B1 light 2 with S31T, A101H, S102G, P105G, A106N, Y111W
notes: 2+1 IgG CrossFab, inverted, with charge modifications; human IgG1 Fc with knob-into-hole and P329G LALA; also called CD3orig (in TCB format)
